Measured values from patent US20240343803A1 (SHANDONG SIMCERE BIOPHARMACEUTICAL, published 2024).

T1: cynomolgus monkey PVRIG on FlpinCHO-cyno PVRIG cells (cynomolgus monkey, UniProt A0A2K5WVV8 41-322)
T1 construct: whole, on cells
T1 sequence: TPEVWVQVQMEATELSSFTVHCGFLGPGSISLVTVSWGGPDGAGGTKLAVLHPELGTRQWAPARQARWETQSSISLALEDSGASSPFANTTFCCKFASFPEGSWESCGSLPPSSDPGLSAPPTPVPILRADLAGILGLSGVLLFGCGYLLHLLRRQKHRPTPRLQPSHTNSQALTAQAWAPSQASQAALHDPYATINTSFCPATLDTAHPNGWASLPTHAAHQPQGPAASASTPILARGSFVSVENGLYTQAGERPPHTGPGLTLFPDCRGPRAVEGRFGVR

T2: cynomolgus monkey PVRIG (Novoprotein, Cat NO. C09B) (cynomolgus monkey, UniProt A0A2K5WVV8 41-171)
T2 construct: also called cynomolgus monkey PVRIG protein
T2 sequence: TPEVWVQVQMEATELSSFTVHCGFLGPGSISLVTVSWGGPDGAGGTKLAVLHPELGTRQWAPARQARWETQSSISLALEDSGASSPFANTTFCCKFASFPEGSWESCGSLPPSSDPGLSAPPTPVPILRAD

T3: human PVRIG-his (AcroBiosystems, Cat NO. PVG-H52H4) (human, UniProt Q6DKI7 41-171, limits assumed)
T3 construct: also called human PVRIG protein
T3 sequence (looked up): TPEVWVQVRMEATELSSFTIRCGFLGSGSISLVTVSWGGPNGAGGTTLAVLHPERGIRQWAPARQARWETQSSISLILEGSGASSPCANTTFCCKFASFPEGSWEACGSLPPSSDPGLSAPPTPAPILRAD


Columns and labels:
[1] = target: T1, cynomolgus monkey PVRIG on …; assay: FACS, FlpinCHO-cyno PVRIG cells
Procedure: The antibodies were diluted from the highest concentration of 46 nM (two-fold concentration) with staining buffer by 3.3-fold serial dilution. The diluted antibodies were added to the well containing 50 μL of cell suspension. The plate was placed on a microplate shaker at 400 rpm for 1 minute to fully mix the antibodies and cells, and then incubated at 4° C. for 30 minutes. After the incubation, the cells were washed twice with staining buffer (200 μL per well) and centrifuged at 350×g for 5 minutes to discard the supernatant. The PE goat anti-human IgG Fc antibody (ebioscience, 12-4998-82) was diluted 250 times with staining buffer, added into the washed wells (100 μL per well), mixed well, and stained at 4° C. for 30 minutes. After staining, the cells were washed twice with staining buffer, finally resuspended with 200 μL staining buffer and analyzed by flow cytometry (BD, Canto II). The stronger the signal, the stronger the ability of the antibodies binds to PVRIG. An antibody binding curve was drawn with concentration of antibodies as the abscissa and the corresponding Mean Fluorescence Intensity (MFI) as the ordinate. The AUC value of the curve was calculated by using a Four Parameter Logistic Fit (GraphPadPrism9). The stronger the AUC value, the stronger the ability of the antibodies binds to FlpinCHO-PVRIG and FlpinCHO-cyno PVRIG. […] The binding activity of the antibodies was normalized to the positive control COM701-hIgG1 and SRF813-hIgG1. The higher the percentage value, the stronger the binding ability of the antibodies.
The methods refer to Example 19. The stronger the AUC value, the stronger the ability of the humanized antibodies binds to FlpinCHO-human/cyno PVRIG.

[2] = target: T2, cynomolgus monkey PVRIG (Novoprotein, …); assay: ELISA, antigen coated
Procedure: (§1) The ELISA plate was pre-coated with 100 μL/well of 0.5 μg/mL human PVRIG-his (AcroBiosystems, Cat NO. PVG-H52H4) or cynomolgus monkey PVRIG (Novoprotein, Cat NO. C09B). The tested anti-PVRIG humanized antibodies were serially diluted (initial concentration 3 nM, 3-fold serial dilution), added into the plate (100 μL/well) and incubated with shaking at room temperature for 1.5 hours. […] A HRP substrate, TMB (Thermo, Cat NO. 34029) was added into wells after washing the plate again for color development. After adding a termination solution to terminate the reaction, the absorbance value was read by a microplate reader (MD i3×). An antibody binding curve was drawn with concentration of antibodies as the abscissa and the corresponding OD value as the ordinate. The EC50 value was calculated by using a Four Parameter Logistic Fit (GraphPadPrism9). The smaller the EC50 value, the stronger the ability of the antibodies binds to human or cynomolgus monkey PVRIG. The binding effect of the humanized antibodies was normalized to the corresponding parental antibodies. If the percentage value is higher than 100%, the binding effect of humanized antibodies is better than that of parental antibody.

[3] = target: T3, human PVRIG-his (AcroBiosystems, Cat …); assay: ELISA, antigen coated
Procedure: as §1

[4] = target: T3, human PVRIG-his (AcroBiosystems, Cat …); assay: competition ELISA, PVRIG-His coated, competitor human PVRL2-mFc; design: AUC: unit not given here
Procedure: The ELISA plate was pre-coated with 100 μL/well of 0.5 μg/mL human PVRIG-his protein (AcroBiosystems, Cat NO. PVG-H52H4). The tested anti-PVRIG antibodies were diluted from the highest concentration of 16 nM (two-fold concentration). The diluted antibodies were mixed with 18 ng/ml human PVRL2-mFc (AcroBiosystems, Cat NO. CD2-H5257) in equal volume, added into the plate (100 μL/well), and incubated with shaking at room temperature for 2.0 hours. […] A HRP substrate, TMB (Thermo, Cat NO. 34029) was added into wells after washing the plate again for color development. After adding a termination solution to terminate the reaction, the absorbance value was read by a microplate reader (MD i3×). An inhibiting curve was drawn with concentration of antibodies as the abscissa and the corresponding OD value as the ordinate. The IC50 value was calculated by using a Four Parameter Logistic Fit (GraphPadPrism9). The smaller the IC50 value, the stronger the ability of the antibodies inhibits the binding between PVRIG and PVRL2. The positive and negative controls are the same as in Example 8.
The methods refer to Example 11. The inhibiting activity of the humanized antibodies was normalized to the corresponding parental antibodies. If the percentage value is higher than 100%, the inhibiting effect of humanized antibodies is better than that of parental antibodies.

Binder	AUC % to COM701-hIgG1 [1] [%]	AUC % to SRF813-hIgG1 [1] [%]	AUC % to parental Ab [1] [%]	% relative activity parental antibody/tested antibody [2] [%]	EC50 [2] [nM]	% relative activity parental antibody/tested antibody [3] [%]	EC50 [3] [nM]	% relative activity (AUC) parental antibody/test antibody [4] [%]	% relative activity (IC50) parental antibody/test antibody [4] [%]	AUC [4]	IC50 [4] [nM]
PVRIG-A105 (Fc fusion, heavy chain antibody VHH-hinge-CH2-CH3, human IgG1 constant part; not shown: human IgG1 hinge-CH2-CH3) EVQLVESGGGLVQAGGSLRLSCAASGRTFDRHTMTWFRQAPGKEREFVATASRIPGDTYYSHSVKGRFTISRDNAKNTVYLQLNNLKPEDTAVYYCAATSAYCSEVDCYEKGSWYDNWGQGIQVTVSS	87.5	108	100	–	–	–	–	–	–	–	–
PVRIG-A50 (Fc fusion, heavy chain antibody VHH-hinge-CH2-CH3, human IgG1 constant part; also called PVRIG-50; not shown: human IgG1 hinge-CH2-CH3) EVQLVESGGGLVQPGGSLRLSCAASGFTFSYYDMSWVRQAPGKGLEWVSTINSNGGRTSYVDSVKGRFTISRDNTKNTLYLQMNSLKPEDTAVYYCVEGDPHNFGLENLSLRDFGSWGQGTQVTVSS	47.1	57.8	100	–	–	–	–	–	–	–	–
PVRIG-A50-H2a (Fc fusion, humanized variant of PVRIG-A50; also called A50.VH2a; not shown: constant part not restated for the humanized forms; parents are VHH-hinge-CH2-CH3 of human IgG1; detected by anti-human) EVQLVESGGGLVQPGGSLRLSCAASGFTFSYYDMSWVRQAPGKGLEWVSTINSNAGRTSYVDSVKGRFTISRDNTKNTLYLQMNSLRAEDTAVYYCVEGDPHNFGLESLSLRDFGSWGQGTMVTVSS	42.4	52.1	90.2	68.3	0.18	140	0.0655	86.4	85.3	2.32	0.911
PVRIG-A50-H1c (Fc fusion, humanized variant of PVRIG-A50; also called A50.VH1c; not shown: constant part not restated for the humanized forms; parents are VHH-hinge-CH2-CH3 of human IgG1; detected by anti-human) EVQLVESGGGLVQPGGSLRLSCAASGFTFSYYDMSWVRQAPGKGLEWVSTINSDGGRTSYVDSVKGRFTISRDNSKNTLYLQMNSLRAEDTAVYYCVEGDPHNFGLENLALRDFGSWGQGTMVTVSS	38.8	47.6	82.5	69.5	0.177	87.3	0.105	76.3	65.9	2.62	1.18
PVRIG-A50-H1a (Fc fusion, humanized variant of PVRIG-A50; also called A50.VH1a; not shown: constant part not restated for the humanized forms; parents are VHH-hinge-CH2-CH3 of human IgG1; detected by anti-human) EVQLVESGGGLVQPGGSLRLSCAASGFTFSYYDMSWVRQAPGKGLEWVSTINSDGGRTSYVDSVKGRFTISRDNSKNTLYLQMNSLRAEDTAVYYCVEGDPHNFGLENLSLRDFGSWGQGTMVTVSS	40.7	50	86.5	66.4	0.185	92.4	0.099	82.5	73	2.43	1.06
PVRIG-A118 (Fc fusion, heavy chain antibody VHH-hinge-CH2-CH3, human IgG1 constant part; not shown: human IgG1 hinge-CH2-CH3) QVQLVESGGGLVQAGGSLRLSCAASETYFDLYVMGWYRQAPGKDRELVATITYTGSIKIVDSVKDRFTISRGDAKNTVSLQMSSLKPEDTAVYFCNADPSGLGRKVYWGQGTQVTVSS	62.4	76.1	100	–	–	–	–	–	–	–	–

Further lines, results first:

AUC % to COM701-hIgG1 [1] [%]	AUC % to SRF813-hIgG1 [1] [%]	AUC % to parental Ab [1] [%]	% relative activity parental antibody/tested antibody [2] [%]	EC50 [2] [nM]	% relative activity parental antibody/tested antibody [3] [%]	EC50 [3] [nM]	% relative activity (AUC) parental antibody/test antibody [4] [%]	% relative activity (IC50) parental antibody/test antibody [4] [%]	AUC [4]	IC50 [4] [nM]	Binder
86.4	107	98.8	91.7	0.0352	125	0.0585	101	97.9	2.52	0.752	PVRIG-A105-H3 (Fc fusion, humanized variant of PVRIG-A105; also called A105.VH3; not shown: constant part not restated for the humanized forms; parents are VHH-hinge-CH2-CH3 of human IgG1; detected by anti-human) EVQLVESGGGLVQPGGSLRLSCAASGRTFDRHTMTWFRQAPGKEREFVATASRIPGDTYYVDSVKGRFTISRDNAKNSVYLQMNSLRAEDTAVYYCAATSAYCSEVDCYEKGSWYDNWGQGTMVTVSS
81.3	101	93	107	0.0303	150	0.0487	112	133	2.27	0.555	PVRIG-A105-H1 (Fc fusion, humanized variant of PVRIG-A105; also called A105.VH1; not shown: constant part not restated for the humanized forms; parents are VHH-hinge-CH2-CH3 of human IgG1; detected by anti-human) EVQLVESGGGLVQPGGSLRLSCAASGRTFDRHTMSWFRQAPGKEREFVATASRIPGDTYYVDSVKGRFTISRDNAKNSLYLQMNSLRAEDTAVYYCAATSAYCSEVDCYEKGSWYDNWGQGTMVTVSS
43.3	53.2	92	89.5	0.138	116	0.0791	86.2	79.5	2.32	0.977	PVRIG-A50-H1e (Fc fusion, humanized variant of PVRIG-A50; also called VH1e; not shown: constant part not restated for the humanized forms; parents are VHH-hinge-CH2-CH3 of human IgG1; detected by anti-human) EVQLVESGGGLVQPGGSLRLSCAASGFTFSYYDMSWVRQAPGKGLEWVSTINSNAGRTSYVDSVKGRFTISRDNSKNTLYLQMNSLRAEDTAVYYCVEGDPHNFGLESLSLRDFGSWGQGTMVTVSS
34.4	42.2	73.1	75.8	0.161	111	0.0819	105	125	2	0.847	PVRIG-A50-H1b (Fc fusion, humanized variant of PVRIG-A50; also called A50.VH1b; not shown: constant part not restated for the humanized forms; parents are VHH-hinge-CH2-CH3 of human IgG1; detected by anti-human) EVQLVESGGGLVQPGGSLRLSCAASGFTFSYYDMSWVRQAPGKGLEWVSTINSDGGRTSYVDSVKGRFTISRDNSKNTLYLQMNSLRAEDTAVYYCVEGDPHNFGLESLSLRDFGSWGQGTMVTVSS
